Values belong to the molecule of their own block, whether it stands above or below them.
B2: DNA ligase 1 (LIG1), in MEFs (enzyme, mouse (endogenous in MEFs), UniProt P37913 1-916, looked up)
chain: MQRSIMSFFQPTKEGKAKKPEKETPSSIREKEPPPKVALKERNQVVPESDSPVKRTGRKVAQVLSCEGEDEDEAPGTPKVQKPVSDSEQSSPPSPDTCPENSPVFNCSSPMDISPSGFPKRRTARKQLPKRTIQDTLEEQNEDKTKTAKKRKKEEETPKESLAEAEDIKQKEEKEGDQLIVPSEPTKSPESVTLTKTENIPVCKAGVKLKPQEEEQSKPPARGAKTLSSFFTPRKPAVKTEVKQEESGTLRKEETKGTLDPANYNPSKNNYHPIEDACWKHGQKVPFLAVARTFEKIEEVSARLKMVETLSNLLRSVVALSPPDLLPVLYLSLNRLGPPQQGLELGVGDGVLLKAVAQATGRQLESIRAEVAEKGDVGLVAENSRSTQRLMLPPPPLTISGVFTKFCDIARLTGSASMAKKMDIIKGLFVACRHSEARYIARSLSGRLRLGLAEQSVLAALAQAVSLTPPGQEFPTVVVDAGKGKTAEARKMWLEEQGMILKQTFCEVPDLDRIIPVLLEHGLERLPEHCKLSPGVPLKPMLAHPTRGVSEVLKRFEEVDFTCEYKYDGQRAQIHVLEGGEVKIFSRNQEDNTGKYPDIISRIPKIKHPSVTSFILDTEAVAWDREKKQIQPFQVLTTRKRKEVDASEIQVQVCLYAFDLIYLNGESLVRQPLSRRRQLLRENFVETEGEFVFTTSLDTKDTEQIAEFLEQSVKDSCEGLMVKTLDVDATYEIAKRSHNWLKLKKDYLDGVGDTLDLVVIGAYLGRGKRAGRYGGFLLAAYDEESEELQAICKLGTGFSDEELEEHHQSLQALVLPTPRPYVRIDGAVAPDHWLDPSIVWEVKCADLSLSPIYPAARGLVDKEKGISLRFPRFIRVRKDKQPEQATTSNQVASLYRKQSQIQNQQSSDLDSDVEDY
notes: DNA ligase 1, mouse, endogenous in MEFs; source: endogenous, mouse embryonic fibroblasts (fixed cells)

Key:
[1] = target: proliferating cell nuclear antigen (PCNA), in MEFs (mouse (endogenous in MEFs)) (UniProt P17918); assay: proximity ligation; Duolink PLA on endogenous proteins in fixed Jmjd1b-/- MEFs; foci per nucleus
Chain of proliferating cell nuclear antigen (PCNA), in MEFs (mouse (endogenous in MEFs)) (P17918 whole entry): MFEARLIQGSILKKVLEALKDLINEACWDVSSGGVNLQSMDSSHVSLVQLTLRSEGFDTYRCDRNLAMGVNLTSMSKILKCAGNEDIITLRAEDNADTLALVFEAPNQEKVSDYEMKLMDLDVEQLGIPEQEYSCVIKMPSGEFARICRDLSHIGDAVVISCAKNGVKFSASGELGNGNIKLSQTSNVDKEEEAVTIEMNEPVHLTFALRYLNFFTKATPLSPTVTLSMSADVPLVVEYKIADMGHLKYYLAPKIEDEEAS

[2] = target: DNA ligase 1 (LIG1), in MEFs (mouse (endogenous in MEFs)) (UniProt P37913); assay: proximity ligation; Duolink PLA on endogenous proteins in fixed WT MEFs; foci per nucleus
[3] = target: proliferating cell nuclear antigen (PCNA), in MEFs (mouse (endogenous in MEFs)) (UniProt P17918); assay: as above
[4] = target: DNA ligase 1 (LIG1), in MEFs (mouse (endogenous in MEFs)) (UniProt P37913); assay: FRET or BRET; FRET microscopy in fixed Jmjd1b-/- MEFs; Alexa Fluor 568 (donor) and Alexa Fluor 647 (acceptor) secondary antibodies; corrected FRET intensity at PCNA foci
[5] = target: DNA ligase 1 (LIG1), in MEFs (mouse (endogenous in MEFs)) (UniProt P37913); assay: FRET or BRET; FRET microscopy in fixed WT MEFs; primary antibodies with Alexa Fluor 568 (donor) and Alexa Fluor 647 (acceptor) secondary antibodies; corrected FRET intensity at PCNA foci
[6] = target: DNA ligase 1 (LIG1), in MEFs (mouse (endogenous in MEFs)) (UniProt P37913); assay: FRET or BRET; FRET microscopy in fixed FEN1 R192Q MEFs; Alexa Fluor 568 (donor) and Alexa Fluor 647 (acceptor) secondary antibodies; corrected FRET intensity at PCNA foci
[7] = target: DNA ligase 1 (LIG1), in MEFs (mouse (endogenous in MEFs)) (UniProt P37913); assay: proximity ligation; Duolink PLA on endogenous proteins in fixed FEN1 R192Q MEFs; foci per nucleus
[8] = target: proliferating cell nuclear antigen (PCNA), in MEFs (mouse (endogenous in MEFs)) (UniProt P17918); assay: as above
[9] = target: Flap endonuclease 1 (FEN1), in MEFs (mouse (endogenous in MEFs)) (UniProt P39749); assay: proximity ligation; Duolink PLA on endogenous proteins in fixed WT MEFs; foci per nucleus
Chain of Flap endonuclease 1 (FEN1), in MEFs (mouse (endogenous in MEFs)) (P39749 whole entry): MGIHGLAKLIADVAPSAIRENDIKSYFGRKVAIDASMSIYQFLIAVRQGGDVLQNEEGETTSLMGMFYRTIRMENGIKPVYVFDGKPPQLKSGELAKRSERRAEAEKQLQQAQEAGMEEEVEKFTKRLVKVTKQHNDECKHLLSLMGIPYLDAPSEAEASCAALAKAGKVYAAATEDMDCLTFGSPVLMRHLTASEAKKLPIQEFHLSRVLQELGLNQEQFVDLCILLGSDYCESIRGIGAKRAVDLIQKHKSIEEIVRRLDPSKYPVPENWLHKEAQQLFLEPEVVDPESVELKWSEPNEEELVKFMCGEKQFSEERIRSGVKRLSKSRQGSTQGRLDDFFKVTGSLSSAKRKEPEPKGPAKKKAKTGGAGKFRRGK

[10] = target: Flap endonuclease 1 (FEN1), in MEFs (mouse (endogenous in MEFs)) (UniProt P39749); assay: FRET or BRET; FRET microscopy in fixed WT MEFs; primary antibodies with Alexa Fluor 568 (donor) and Alexa Fluor 647 (acceptor) secondary antibodies; corrected FRET intensity at PCNA foci
[11] = target: B2; assay: proximity ligation; Duolink PLA on endogenous proteins in fixed WT MEFs; foci per nucleus; conditions: partners not purified
[12] = target: T1, proliferating cell nuclear antigen (PCNA), in MEFs (mouse (endogenous in MEFs), UniProt P17918 1-261); assay: as above; conditions: partners not purified
T1 construct: PCNA, mouse, endogenous in MEFs; source: endogenous, mouse embryonic fibroblasts (fixed cells)
T1 sequence (P17918 whole entry): as the sequence (P17918 whole entry) above

PLA foci per nucleus [1]: 76.2 foci/nucleus
PLA foci per MEF (PLA foci per MEF) [2]: 20
PLA foci per nucleus [2]: 18.8 foci/nucleus
PLA foci per MEF (PLA foci per MEF) [3]: 40
PLA foci per nucleus [3]: 70.3 foci/nucleus
FEN1-LIG1 FRET signal at PCNA foci, early middle S phase [4]: 4.8
FEN1-LIG1 FRET signal at PCNA foci, late S phase [4]: 7.4
FEN1-LIG1 FRET level at PCNA foci, throughout S phase [5]: 5.8
FEN1-LIG1 FRET signal at PCNA foci, early middle S phase [5]: 5.6
FEN1-LIG1 FRET signal at PCNA foci, late S phase [5]: 6.3
FRET signal (corrected FRET intensity at PCNA foci) [5]: 18.6
Molecule: Flap endonuclease 1 (FEN1), in MEFs (from UniProt P39749 1-378) (enzyme)

PLA foci per MEF (PLA foci per MEF) [9]: 20
FRET signal (corrected FRET intensity at PCNA foci) [10]: 20.1
PLA foci per MEF [11]: < 5 PLA foci per MEF
PLA foci per MEF [12]: ~40 PLA foci per MEF
B1: POLD1 (the catalytic and PCNA-binding subunit of Polδ), in MEFs (enzyme, mouse (endogenous in MEFs), UniProt P52431 1-1105, looked up)
chain: MDCKRRQGPGPGVPPKRARGHLWDEDEPSPSQFEANLALLEEIEAENRLQEAEEELQLPPEGTVGGQFSTADIDPRWRRPTLRALDPSTEPLIFQQLEIDHYVGSAPPLPEGPLPSRNSVPILRAFGVTDEGFSVCCHIQGFAPYFYTPAPPGFGAEHLSELQQELNAAISRDQRGGKELSGPAVLAIELCSRESMFGYHGHGPSPFLRITLALPRLMAPARRLLEQGVRVPGLGTPSFAPYEANVDFEIRFMVDADIVGCNWLELPAGKYVRRAEKKATLCQLEVDVLWSDVISHPPEGQWQRIAPLRVLSFDIECAGRKGIFPEPERDPVIQICSLGLRWGEPEPFLRLALTLRPCAPILGAKVQSYEREEDLLQAWADFILAMDPDVITGYNIQNFDLPYLISRAQALKVDRFPFLGRVTGLRSNIRDSSFQSRQVGRRDSKVISMVGRVQMDMLQVLLREHKLRSYTLNAVSFHFLGEQKEDVQHSIITDLQNGNEQTRRRLAVYCLKDAFLPLRLLERLMVLVNNVEMARVTGVPLGYLLTRGQQVKVVSQLLRQAMRQGLLMPVVKTEGSEDYTGATVIEPLKGYYDVPIATLDFSSLYPSIMMAHNLCYTTLLRPGAAQKLGLKPDEFIKTPTGDEFVKSSVRKGLLPQILENLLSARKRAKAELAQETDPLRRQVLDGRQLALKVSANSVYGFTGAQVGKLPCLEISQSVTGFGRQMIEKTKQLVESKYTVENGYDANAKVVYGDTDSVMCRFGVSSVAEAMSLGREAANWVSSHFPSPIRLEFEKVYFPYLLISKKRYAGLLFSSRSDAHDKMDCKGLEAVRRDNCPLVANLVTSSLRRILVDRDPDGAVAHAKDVISDLLCNRIDISQLVITKELTRAAADYAGKQAHVELAERMRKRDPGSAPSLGDRVPYVIIGAAKGVAAYMKSEDPLFVLEHSLPIDTQYYLEQQLAKPLLRIFEPILGEGRAESVLLRGDHTRCKTVLTSKVGGLLAFTKRRNCCIGCRSVIDHQGAVCKFCQPRESELYQKEVSHLNALEERFSRLWTQCQRCQGSLHEDVICTSRDCPIFYMRKKVRKDLEDQERLLQRFGPPGPEAW
notes: POLD1, catalytic subunit of DNA polymerase delta, mouse, endogenous in MEFs; source: endogenous, mouse embryonic fibroblasts (fixed cells)

Continued, molecule first:

Molecule: FEN1 R192Q, in FEN1 R192Q MEFs (from UniProt P39749 1-378) (enzyme)
FEN1-LIG1 FRET level at PCNA foci, throughout S phase [6]: 2
PLA foci per nucleus [7]: 9.8 foci/nucleus
PLA foci per nucleus [8]: 31.7 foci/nucleus

Molecule: B2
PLA foci per MEF [12]: ~40 PLA foci per MEF

Reference: paper doi:10.1101/2025.10.06.680735, “JMJD1B-mediated FEN1 demethylation allows timely switching of Okazaki fragment maturation core enzymes to avoid mutagenic flap ligation by PARP1-LIG3” (bioRxiv, 2025)
